The record followed here is article PMC9136706.

Assay [1] addresses Expanded P22 virus-like particle (bacteriophage P22 capsid) (bacteriophage P22) (UniProt P26747). Description: SEC-MALS. Background: In gel filtration, larger molecules generally elute earlier.
In assay [2] the target is DechCD40L (Dec-fused human CD40L) (bacteriophage L | human) (UniProt P29965). The assay can be described thus: SEC.
Assay [3] has as its target human CD40 on HEK-Blue CD40L cells (human) (UniProt P25942).

Values joined by “and” are separate entries in the source; they are usually repeats but may differ in a detail not shown here. Equal values may be shown once.

Sequence of UniProt P26747 (P26747 whole entry, the tested form may be a part): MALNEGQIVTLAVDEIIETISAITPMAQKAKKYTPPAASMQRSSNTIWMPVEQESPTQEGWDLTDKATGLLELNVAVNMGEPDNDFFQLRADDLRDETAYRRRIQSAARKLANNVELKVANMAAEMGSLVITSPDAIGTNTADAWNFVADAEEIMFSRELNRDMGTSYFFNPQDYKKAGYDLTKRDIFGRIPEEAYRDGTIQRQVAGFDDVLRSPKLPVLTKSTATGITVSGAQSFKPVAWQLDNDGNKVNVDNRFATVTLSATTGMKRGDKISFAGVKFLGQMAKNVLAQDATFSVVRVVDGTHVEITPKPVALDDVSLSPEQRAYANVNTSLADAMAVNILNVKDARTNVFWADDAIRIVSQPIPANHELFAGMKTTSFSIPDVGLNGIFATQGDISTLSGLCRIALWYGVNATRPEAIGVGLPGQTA
Sequence of UniProt P25942 (P25942 21-277): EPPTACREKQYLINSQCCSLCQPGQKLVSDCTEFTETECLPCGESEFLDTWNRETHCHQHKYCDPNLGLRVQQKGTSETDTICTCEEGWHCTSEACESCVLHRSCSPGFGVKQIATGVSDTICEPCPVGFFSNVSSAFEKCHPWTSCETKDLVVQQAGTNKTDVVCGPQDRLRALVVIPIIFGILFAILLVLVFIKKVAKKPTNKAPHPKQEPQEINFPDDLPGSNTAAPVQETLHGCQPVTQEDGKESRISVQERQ

In turn, “Dec (decoration protein of bacteriophage L), wild type (natural protein)” yielded a stoichiometry N (Dec per capsid) in assay [1] of 60.
A word on the stoichiometry N: it is a count of units in the complex or per binding partner. As to “DechCD40L (Dec-fused human CD40L) (from UniProt P29965 114-261) (ligand)”, in assay [2], the percent of the total peak in the shoulder multimer peak worked out at 8.2%; the stoichiometry N was 3 and 6.
For the substance “DechCD40L bound to P22 (DechCD40L-P22) (from UniProt P29965 114-261; P26747 1-430) (complex)”, the fold lower EC50 of the SEAP reporter than free hCD40L in assay [3] was determined as 53.6 fold.
